Source: patent US9249224B2 (RINAT NEUROSCIENCE CORP., priority 2011, dated 2016)

Tested on: IGF-1
Test: Serum IGF-1 levels in cynomolgus monkeys after a single antibody dose
Format: in vivo, cynomolgus monkey
Method: Serum samples were analyzed for changes in IGF-1 levels compared to baseline using an R&D Systems™ Quantikine™ human IGF-1 immunoassay kit (cat. #DG100).
To determine if GHR antagonist monoclonal antibodies can affect IGF-1, IGFBP-3, and ALS levels in vivo by inhibiting the function of GHR, the effect of humanized anti-human GHR antibody SS1 was tested in cynomolgus monkeys. A dose-response study was conducted to test for changes in IGF-1, IGFBP-3, and ALS levels following a single dose of SS1. Eight naïve female cynomolgus monkeys were injected intravenously with a single dose of SS1 or negative control human IgG2, in 1×PBS 0.01% Tween™ 20. Two monkeys were dosed with 30 mg/kg SS1, two were dosed with 10 mg/kg SS1, two were dosed with 3 mg/kg SS1, and two were dosed with 30 mg/kg negative control human IgG2Δa on Day 1. Serum samples were taken from all animals at the following timepoints: pre-dose, 24 h, 48 h, 72 h, 120 h, 144 h, 192 h, 240 h, 336 h, 528 h, 696 h. Serum was also taken from the 30 mg/kg SS1 and negative control treated animals at 864 h post-dose.
Six naïve female cynomolgus monkeys were injected either intravenously or subcutaneously with a single dose of […] or negative control human IgG2Δa in 1×PBS 0.01% Tween™ 20. Two monkeys were dosed with 3 mg/kg SS1 intravenously, two were dosed with 3 mg/kg SS1 subcutaneously, and two were dosed with 3 mg/kg negative control human IgG2Δa subcutaneously on Day 1. Serum samples were taken from all animals at the following timepoints: pre-dose, 24 h, 72 h, 120 h, 168 h, 216 h, 264 h, 312 h, 360 h, 408 h, 456 h and 504 h.

B1: SS1: humanized GHR antagonist antibody; VL SEQ ID NO: 7, VH SEQ ID NO: 8; hIgG2Δa heavy chain SEQ ID NO: 134, light chain SEQ ID NO: 135 (antibody)
heavy: EVQLVESGGGLVKPGGSLRLSCAASGFTFSDAWMDWVRQAPGKGLEWVAEIRSKANYHATYYAESVKGRFTISRDDSKNTLYLQMNSLKTEDTAVYYCTLIRDYWGQGTLVTVSSASTKGPSVFPLAPCSRSTSESTAALGCLVKDYFPEPVTVSWNSGALTSGVHTFPAVLQSSGLYSLSSVVTVPSSNFGTQTYTCNVDHKPSNTKVDKTVERKCCVECPPCPAPPVAGPSVFLFPPKPKDTLMISRTPEVTCVVVDVSHEDPEVQFNWYVDGVEVHNAKTKPREEQFNSTFRVVSVLTVVHQDWLNGKEYKCKVSNKGLPSSIEKTISKTKGQPREPQVYTLPPSREEMTKNQVSLTCLVKGFYPSDIAVEWESNGQPENNYKTTPPMLDSDGSFFLYSKLTVDKSRWQQGNVFSCSVMHEALHNHYTQKSLSLSPGK
light: EIVLTQSPGTLSLSPGERATLSCTATSSVSSSYLNWYQQKPGQAPRLLIYSTSNLASGIPDRFSGSGSGTDFTLTISRLEPEDFAVYYCHQYHRSTPTFGGGTKVEIKRTVAAPSVFIFPPSDEQLKSGTASVVCLLNNFYPREAKVQWKVDNALQSGNSQESVTEQDSKDSTYSLSSTLTLSKADYEKHKVYACEVTHQGLSSPVTKSFNRGEC
modifications: Humanized and/or affinity matured antibody sequence
serum IGF-1 levels (% change from baseline) (Table 10, cynomolgus monkeys, SS1 3 mg/kg IV single dose, 24 h post-injection): −43.6 +/− 0.5%
serum IGF-1 levels (% change from baseline) (Table 10, cynomolgus monkeys, SS1 3 mg/kg IV single dose, 48 h post-injection): −66.6 +/− 1.1%
serum IGF-1 levels (% change from baseline) (Table 10, cynomolgus monkeys, SS1 3 mg/kg IV single dose, 72 h post-injection): −67.1 +/− 1.6%
serum IGF-1 levels (% change from baseline) (Table 10, cynomolgus monkeys, SS1 3 mg/kg IV single dose, 120 h post-injection): −76.2 +/− 7.9%
serum IGF-1 levels (% change from baseline) (Table 10, cynomolgus monkeys, SS1 3 mg/kg IV single dose, 144 h post-injection): −68.4 +/− 1.1%
serum IGF-1 levels (% change from baseline) (Table 10, cynomolgus monkeys, SS1 3 mg/kg IV single dose, 192 h post-injection): −65.2 +/− 3.0%
serum IGF-1 levels (% change from baseline) (Table 10, cynomolgus monkeys, SS1 3 mg/kg IV single dose, 240 h post-injection): −34.5 +/− 17.8%
serum IGF-1 levels (% change from baseline) (Table 10, cynomolgus monkeys, SS1 3 mg/kg IV single dose, 336 h post-injection): 64.2 +/− 0.6%
serum IGF-1 levels (% change from baseline) (Table 10, cynomolgus monkeys, SS1 3 mg/kg IV single dose, 528 h post-injection): 85.1 +/− 46.0%
serum IGF-1 levels (% change from baseline) (Table 10, cynomolgus monkeys, SS1 3 mg/kg IV single dose, 696 h post-injection): 49.2 +/− 11.3%
serum IGF-1 levels (% change from baseline) (Table 10, cynomolgus monkeys, SS1 10 mg/kg IV single dose, 24 h post-injection): −43.4 +/− 2.2%
serum IGF-1 levels (% change from baseline) (Table 10, cynomolgus monkeys, SS1 10 mg/kg IV single dose, 48 h post-injection): −62.6 +/− 5.5%
serum IGF-1 levels (% change from baseline) (Table 10, cynomolgus monkeys, SS1 10 mg/kg IV single dose, 72 h post-injection): −67.1 +/− 4.7%
serum IGF-1 levels (% change from baseline) (Table 10, cynomolgus monkeys, SS1 10 mg/kg IV single dose, 120 h post-injection): −73.5 +/− 2.1%
serum IGF-1 levels (% change from baseline) (Table 10, cynomolgus monkeys, SS1 10 mg/kg IV single dose, 144 h post-injection): −76.0 +/− 0.1%
serum IGF-1 levels (% change from baseline) (Table 10, cynomolgus monkeys, SS1 10 mg/kg IV single dose, 192 h post-injection): −74.0 +/− 0.2%
serum IGF-1 levels (% change from baseline) (Table 10, cynomolgus monkeys, SS1 10 mg/kg IV single dose, 240 h post-injection): −70.9 +/− 1.9%
serum IGF-1 levels (% change from baseline) (Table 10, cynomolgus monkeys, SS1 10 mg/kg IV single dose, 336 h post-injection): −61.4 +/− 0.6%
serum IGF-1 levels (% change from baseline) (Table 10, cynomolgus monkeys, SS1 10 mg/kg IV single dose, 528 h post-injection): 25.7 +/− 11.8%
serum IGF-1 levels (% change from baseline) (Table 10, cynomolgus monkeys, SS1 10 mg/kg IV single dose, 696 h post-injection): 31.7 +/− 15.2%
serum IGF-1 levels (% change from baseline) (Table 10, cynomolgus monkeys, SS1 30 mg/kg IV single dose, 24 h post-injection): −43.2 +/− 3.0%
serum IGF-1 levels (% change from baseline) (Table 10, cynomolgus monkeys, SS1 30 mg/kg IV single dose, 48 h post-injection): −63.2 +/− 5.0%
serum IGF-1 levels (% change from baseline) (Table 10, cynomolgus monkeys, SS1 30 mg/kg IV single dose, 72 h post-injection): −68.5 +/− 5.8%
serum IGF-1 levels (% change from baseline) (Table 10, cynomolgus monkeys, SS1 30 mg/kg IV single dose, 120 h post-injection): −75.2 +/− 5.2%
serum IGF-1 levels (% change from baseline) (Table 10, cynomolgus monkeys, SS1 30 mg/kg IV single dose, 144 h post-injection): −77.5 +/− 5.6%
serum IGF-1 levels (% change from baseline) (Table 10, cynomolgus monkeys, SS1 30 mg/kg IV single dose, 192 h post-injection): −77.2 +/− 3.3%
serum IGF-1 levels (% change from baseline) (Table 10, cynomolgus monkeys, SS1 30 mg/kg IV single dose, 240 h post-injection): −74.8 +/− 3.4%
serum IGF-1 levels (% change from baseline) (Table 10, cynomolgus monkeys, SS1 30 mg/kg IV single dose, 336 h post-injection): −73.3 +/− 0.7%
serum IGF-1 levels (% change from baseline) (Table 10, cynomolgus monkeys, SS1 30 mg/kg IV single dose, 528 h post-injection): −73.0 +/− 0.9%
serum IGF-1 levels (% change from baseline) (Table 10, cynomolgus monkeys, SS1 30 mg/kg IV single dose, 696 h post-injection): −70.4 +/− 1.1%
serum IGF-1 levels (% change from baseline) (Table 10, cynomolgus monkeys, SS1 30 mg/kg IV single dose, 864 h post-injection): −8.8 +/− 2.9%
serum IGF-1 levels (% change from baseline) (Table 13, cynomolgus monkeys, SS1 3 mg/kg IV single dose, 24 hour post-injection): −35 +/− 4.4%
serum IGF-1 levels (% change from baseline) (Table 13, cynomolgus monkeys, SS1 3 mg/kg IV single dose, 72 hour post-injection): −64.8 +/− 2.7%
serum IGF-1 levels (% change from baseline) (Table 13, cynomolgus monkeys, SS1 3 mg/kg IV single dose, 120 hour post-injection): −71.6 +/− 1.8%
serum IGF-1 levels (% change from baseline) (Table 13, cynomolgus monkeys, SS1 3 mg/kg IV single dose, 168 hour post-injection): −70.2 +/− 2.7%
serum IGF-1 levels (% change from baseline) (Table 13, cynomolgus monkeys, SS1 3 mg/kg IV single dose, 216 hour post-injection): −64.5%
serum IGF-1 levels (% change from baseline) (Table 13, cynomolgus monkeys, SS1 3 mg/kg IV single dose, 264 hour post-injection): −36.0%
serum IGF-1 levels (% change from baseline) (Table 13, cynomolgus monkeys, SS1 3 mg/kg IV single dose, 312 hour post-injection): −30.3%
serum IGF-1 levels (% change from baseline) (Table 13, cynomolgus monkeys, SS1 3 mg/kg IV single dose, 360 hour post-injection): −27.8%
serum IGF-1 levels (% change from baseline) (Table 13, cynomolgus monkeys, SS1 3 mg/kg SQ single dose, 24 hour post-injection): −46.7 +/− 9.9%
serum IGF-1 levels (% change from baseline) (Table 13, cynomolgus monkeys, SS1 3 mg/kg SQ single dose, 72 hour post-injection): −62.5 +/− 2.5%
serum IGF-1 levels (% change from baseline) (Table 13, cynomolgus monkeys, SS1 3 mg/kg SQ single dose, 120 hour post-injection): −68.7 +/− 2.8%
serum IGF-1 levels (% change from baseline) (Table 13, cynomolgus monkeys, SS1 3 mg/kg SQ single dose, 168 hour post-injection): −65.6 +/− 4.1%
serum IGF-1 levels (% change from baseline) (Table 13, cynomolgus monkeys, SS1 3 mg/kg SQ single dose, 216 hour post-injection): −60.7%
serum IGF-1 levels (% change from baseline) (Table 13, cynomolgus monkeys, SS1 3 mg/kg SQ single dose, 264 hour post-injection): −40.9%
serum IGF-1 levels (% change from baseline) (Table 13, cynomolgus monkeys, SS1 3 mg/kg SQ single dose, 312 hour post-injection): −15.3%
serum IGF-1 levels (% change from baseline) (Table 13, cynomolgus monkeys, SS1 3 mg/kg SQ single dose, 360 hour post-injection): −4.2%
time until which serum IGF-1 remained below 60% baseline levels (cynomolgus monkeys, 3 mg/kg SS1 either SQ or IV): about 216 hour
time until which serum IGF-1 remained substantially lower than baseline (cynomolgus monkeys, SS1 3 mg/kg IV single dose): 240 h
time until which serum IGF-1 remained substantially lower than baseline (cynomolgus monkeys, SS1 10 mg/kg IV single dose): 336 h
time until which serum IGF-1 remained substantially lower than baseline (cynomolgus monkeys, SS1 30 mg/kg IV single dose): 696 h
serum IGF-1 decrease below baseline levels (cynomolgus monkeys, single IV dose of 3, 10 or 30 mg/kg SS1, by 120 hours): about 75%
serum IGF-1 decrease below control (cynomolgus monkeys, single dose 3 mg/kg SS1 subcutaneous (SC) or intravenous (IV), by 72 hours): about 63%
effect on serum IGF-1 levels in cynomolgus monkeys (single IV dose, dose-response): dose dependently reduces serum IGF-1 levels
